Patent US20240382628A1

Biological target: CD11b on cells in whole blood (species not stated) (Homo sapiens (Human)) (UniProt P11215)
Experiment: adhesion of antibody-bearing backpacks to cells in whole blood

Substance: CD11b antibody (M1/70 clone, Biolegend Purified anti-mouse/human CD11b Antibody Cat #101201/101202), on polymeric particles (backpacks)
- % of CD14+ monocytes with adhered backpacks: 95%
